Laboratory results as given in patent US12139520B2 (priority 2020, dated 2024).
Bridge positions count the residues as written; N and C are the ends. Square brackets hold non-standard residues; d marks the D form. Ends that are not written are not given here. Hyp = O=C(O)[C@@H]1C[C@@H](O)CN1; Cit = NC(=O)NCCC[C@H](N)C(=O)O

Key:
[1] = biological target: T1, hAMY3R (human, UniProt P30988); assay: cell-based or functional assay
T1 sequence 1: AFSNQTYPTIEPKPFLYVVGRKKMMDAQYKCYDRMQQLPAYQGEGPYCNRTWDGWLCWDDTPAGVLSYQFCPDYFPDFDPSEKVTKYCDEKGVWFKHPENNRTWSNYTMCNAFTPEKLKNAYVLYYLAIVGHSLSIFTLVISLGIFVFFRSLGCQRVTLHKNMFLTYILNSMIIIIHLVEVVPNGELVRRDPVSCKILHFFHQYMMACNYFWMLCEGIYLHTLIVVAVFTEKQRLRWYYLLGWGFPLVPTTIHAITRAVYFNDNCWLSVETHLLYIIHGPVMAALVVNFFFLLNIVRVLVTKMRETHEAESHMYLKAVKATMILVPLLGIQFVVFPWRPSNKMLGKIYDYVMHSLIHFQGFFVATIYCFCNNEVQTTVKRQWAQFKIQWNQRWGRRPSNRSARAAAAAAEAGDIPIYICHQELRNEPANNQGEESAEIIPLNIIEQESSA
T1 sequence 2: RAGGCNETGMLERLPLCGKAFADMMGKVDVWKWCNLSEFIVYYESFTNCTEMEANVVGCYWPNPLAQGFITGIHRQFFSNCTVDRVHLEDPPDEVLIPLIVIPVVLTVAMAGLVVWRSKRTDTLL

[2] = biological target: hAM1R (human, UniProt Q16602); assay: cell-based or functional assay

Binder	hAMY3R EC50 (cAMP) [1]	hAM1R EC50 (cAMP) [2]
KCNTATCTVQRLAHQIYQFTAKDKDNVAPPTNVGSNG[Hyp]-NH2 (disulfide 2-7 (inferred); ends not checked) [SEQ ID NO: 24]	0.008 nM	> 5000 nM
GCRTGTCTVQRLAHQIYQFTDKFKDNVAPRSKISPQM[Hyp]-NH2 (disulfide 2-7 (inferred); ends not checked) [SEQ ID NO: 236]	0.234 nM	2240 nM
GCRTGTCTVQRLAHQIYQFTNKDKDNVAPRSKISPQTM [SEQ ID NO: 237]	0.235 nM	4250 nM
GCRTGTCTVQRLAHQIYQFTNKDKDNVAPRSKISPQF[Hyp]-NH2 (disulfide 2-7 (inferred); ends not checked) [SEQ ID NO: 238]	0.235 nM	> 5000 nM
GCRTGTCTVQRLAHQIYQFTDKFKDNVAPRSKISPQTF [SEQ ID NO: 239]	0.236 nM	> 5000 nM
GCRFGTCTVQRLAHQIYQFTDKDKDNVAPSSKISPQT[Hyp]-NH2 (disulfide 2-7 (inferred); ends not checked) [SEQ ID NO: 240]	0.24 nM	> 5000 nM
GCRTGTCTVQRLAHQIYQFTDKFKDNVAPRSKISPQTA [SEQ ID NO: 241]	0.242 nM	2290 nM
GCRTGTCTVQRLAHQIYQFTNKDKDNVAPRSKISPQTR [SEQ ID NO: 242]	0.248 nM	> 5000 nM
KCNTATCTVQ[Cit]LAAQIYQFTDKDKDNVAPPTNVGSNG[Hyp]-NH2 (disulfide 2-7 (inferred); ends not checked) [SEQ ID NO: 243]	0.018 nM	3340 nM
KCNTSTCTVA[Cit]LADQITQFSNKDKAQVSPPTEVGPNS[Hyp]-NH2 (disulfide 2-7 (inferred); ends not checked) [SEQ ID NO: 244]	0.006 nM	> 5000 nM
RCNASTCTVN[Cit]LADQITQFSNKDKAQVSPPTEVGPNS[Hyp]-NH2 (disulfide 2-7 (inferred); ends not checked) [SEQ ID NO: 245]	0.017 nM	> 5000 nM
KCNTATCTVQRLAHQIYQFTDKDADNVAPPTNVGSNG[Hyp]-NH2 (disulfide 2-7 (inferred); ends not checked) [SEQ ID NO: 25]	0.008 nM	> 5000 nM
KCNTATCTVQ[Cit]LAHQIAQFTDKDKDNVAPPTNVGSNG[Hyp]-NH2 (disulfide 2-7 (inferred); ends not checked) [SEQ ID NO: 246]	0.01 nM	> 5000 nM
KCNTSTCTVA[Cit]LADQITQFSDKDKANVSPPTEVGPNS[Hyp]-NH2 (disulfide 2-7 (inferred); ends not checked) [SEQ ID NO: 247]	0.004 nM	> 5000 nM
KCNTATCTVQ[Cit]LAHQIYQFTDKDKDNVAPRTKVGSNG[Hyp]-NH2 (disulfide 2-7 (inferred); ends not checked) [SEQ ID NO: 248]	0.027 nM	3590 nM
KCNTATCTVQ[Cit]LAHQIYQFADKDKDNVAPPTNVGSNG[Hyp]-NH2 (disulfide 2-7 (inferred); ends not checked) [SEQ ID NO: 249]	0.006 nM	> 5000 nM
KCNTATCTVQ[Cit]LAHQIYQFTDKDADNVAPPTNVGSNG[Hyp]-NH2 (disulfide 2-7 (inferred); ends not checked) [SEQ ID NO: 250]	0.011 nM	> 5000 nM

Binder	hAMY3R EC50 (cAMP) [1]	hAM1R EC50 (cAMP) [2]
KCNFATCTVQRLAHQIYQFTDKDKDNVAPRTKVGSNG[Hyp]-NH2 (disulfide 2-7 (inferred); ends not checked) [SEQ ID NO: 3]	0.006 nM	124 nM
KCNTATCTVQ[Cit]LAHQIYQFTDKDKDNAAPPTNVGSNG[Hyp]-NH2 (disulfide 2-7 (inferred); ends not checked) [SEQ ID NO: 251]	0.006 nM	> 5000 nM
KCNTATCTVQ[Cit]LAHQIYQFTDKDKDNVAPATNVGSNG[Hyp]-NH2 (disulfide 2-7 (inferred); ends not checked) [SEQ ID NO: 252]	0.006 nM	> 5000 nM
KCNTATCTVQ[Cit]LAHQIYQFTKDKDNVAPPTNVGSNG[Hyp]-NH2 (disulfide 2-7 (inferred); ends not checked) [SEQ ID NO: 253]	0.004 nM	> 5000 nM
KCNTATCTVQ[Cit]LAHQIYQFTDKDKDNVPPTNVGSNG[Hyp]-NH2 (disulfide 2-7 (inferred); ends not checked) [SEQ ID NO: 254]	0.006 nM	> 5000 nM
KCNTATCTVQ[Cit]LAHQIYQFTDKDKDNVAPTNVGSNG[Hyp]-NH2 (disulfide 2-7 (inferred); ends not checked) [SEQ ID NO: 255]	0.007 nM	> 5000 nM
KCNTATCTVQRLAHQIYQFTDKDKANVAPPTNVGSNG[Hyp]-NH2 (disulfide 2-7 (inferred); ends not checked) [SEQ ID NO: 26]	0.008 nM	> 5000 nM
RCQTSTCTVA[Cit]LAEQIAQYTDKDKDQVAPPTNVGSNS[Hyp]-NH2 (disulfide 2-7 (inferred); ends not checked) [SEQ ID NO: 256]	0.007 nM	> 5000 nM
KCNTATCTVQ[Cit]LAHQIYQFTDKDKDNVAPRTKVGSNGY-NH2 (disulfide 2-7 (inferred); ends not checked) [SEQ ID NO: 257]	0.016 nM	2040 nM
KCNTATCTVQ[Cit]LAHQIYQFTDKAKDNVAPPTNVGSNG[Hyp]-NH2 (disulfide 2-7 (inferred); ends not checked) [SEQ ID NO: 258]	0.01 nM	> 5000 nM
GCRFGTCTVQ[Cit]LAHQIYQFTDKDKDNVAPRTKVGPQG[Hyp]-NH2 (disulfide 2-7 (inferred); ends not checked) [SEQ ID NO: 259]	0.013 nM	4320 nM
GCRFGTCTVQ[Cit]LAHQIYQFTDKDKDNVAPRTNIGPQG[Hyp]-NH2 (disulfide 2-7 (inferred); ends not checked) [SEQ ID NO: 260]	0.011 nM	4160 nM
GCRTGTCTVQ[Cit]LAHQIYQFTDKDKDNVAPRTNVGPQG[Hyp]-NH2 (disulfide 2-7 (inferred); ends not checked) [SEQ ID NO: 261]	0.018 nM	> 5000 nM
KCNTATCTVQ[Cit]LAHQIYQFTDKDKDNVAAPTNVGSNG[Hyp]-NH2 (disulfide 2-7 (inferred); ends not checked) [SEQ ID NO: 262]	0.014 nM	> 5000 nM
GCRFGTCTVQ[Cit]LAHFLYQFTDKDKDNVAPRTNVGPQGY-NH2 (disulfide 2-7 (inferred); ends not checked) [SEQ ID NO: 263]	0.005 nM	1280 nM
GCRFGTCTVQ[Cit]LAHFLYQFTDKDKDNVAPRTNVGSNTY-NH2 (disulfide 2-7 (inferred); ends not checked) [SEQ ID NO: 264]	0.006 nM	3470 nM
